# Results from US20160264649A1.
# Columns and labels:
# Test in all cases: cell-based or functional assay
# [1] = target: HIV-1 Env of isolate CAAN.A2 (HIV-1)
# [2] = target: HIV-1 Env of isolate MGRM-Chronic-B-011 (HIV-1)
# [3] = target: HIV-1 Env of isolate PVO.4 (HIV-1)
# [4] = target: HIV-1 Env of isolate MG RM-C-022 (HIV-1)
# [5] = target: HIV-1 Env of isolate APV_13 (HIV-1)
# [6] = target: HIV-1 Env of isolate APV_6 (HIV-1)
# [7] = target: HIV-1 Env of isolate MGRM-Chronic-B-012 (HIV-1)
# [8] = target: HIV-1 Env of isolate VLGCB3 (HIV-1)
# [9] = target: HIV-1 Env of isolate MGRM-Chronic-B-017 (HIV-1)
# [10] = target: HIV-1 Env of isolate MG RM-C-027 (HIV-1)
# [11] = target: HIV-1 Env of isolate APV_17 (HIV-1)
# [12] = target: HIV-1 Env of isolate MGRM-Chronic-B-004 (HIV-1)
# [13] = target: HIV-1 Env of isolate 93TH305 (HIV-1)
# [14] = target: HIV-1 Env of isolate 93IN905 (HIV-1)
# [15] = target: HIV-1 Env of isolate 98IN022 (HIV-1)
# [16] = target: HIV-1 Env of isolate THR0.18 (HIV-1)
# [17] = target: HIV-1 Env of isolate MG RM-C-028 (HIV-1)
# [18] = target: HIV-1 Env of isolate MG RM-C-024 (HIV-1)
# [19] = target: HIV-1 Env of isolate MGRM-Chronic-B-010 (HIV-1)
# [20] = target: HIV-1 Env of isolate JRCSF (HIV-1) (UniProt P20871)
# [21] = target: HIV-1 Env of isolate MGRM-Chronic-B-003 (HIV-1)
# [22] = target: HIV-1 Env of isolate 92 BR 020 (HIV-1)
# [23] = target: HIV-1 Env of isolate MG RM-C-023 (HIV-1)
# [24] = target: HIV-1 Env of isolate 6535.3 (HIV-1)
# [25] = target: HIV-1 Env of isolate MGRM-Chronic-B-024 (HIV-1)
# [26] = target: HIV-1 Env of isolate MG RM-C-025 (HIV-1)
# [27] = target: HIV-1 Env of isolate JRFL (HIV-1)
# [28] = target: HIV-1 Env of isolate NL43 (HIV-1)
# [29] = target: HIV-1 Env of isolate MGRM-Chronic-B-023 (HIV-1)
# [30] = target: HIV-1 Env of isolate SC422661.8 (HIV-1)
# [31] = target: HIV-1 Env of isolate MGRM-Chronic-B-002 (HIV-1)
# [32] = target: HIV-1 Env of isolate MGRM-Chronic-B-001 (HIV-1)
# [33] = target: HIV-1 Env of isolate TRJ04551.58 (HIV-1)
# [34] = target: HIV-1 Env of isolate TRO.11 (HIV-1)
# [35] = target: HIV-1 Env of isolate QH0692.42 (HIV-1)
# [36] = target: HIV-1 Env of isolate SF162 (HIV-1) (UniProt P19550)
# [37] = target: HIV-1 Env of isolate MGRM-Chronic-B-020 (HIV-1)
# [38] = target: HIV-1 Env of isolate 93MW959 (HIV-1)
# [39] = target: HIV-1 Env of isolate 97ZA012 (HIV-1)
# [40] = target: HIV-1 Env of isolate MGRM-Chronic-B-008 (HIV-1)
# [41] = target: HIV-1 Env of isolate MGRM-Chronic-B-018 (HIV-1)
# [42] = target: HIV-1 Env of isolate MG RM-C-020 (HIV-1)
# [43] = target: HIV-1 Env of isolate MG RM-C-026 (HIV-1)
substance,measurement,setting,value
PGT-127 monoclonal antibody (5145_B14),neutralization IC50,[1],0.371 mg/L
same,neutralization IC50,[2],0.297 mg/L
same,neutralization IC50,[3],0.164 mg/L
same,neutralization IC50,[4],0.41 mg/L
same,neutralization IC50,[5],0.026 mg/L
same,neutralization IC50,[6],0.04 mg/L
same,neutralization IC50,[7],0.075 mg/L
same,neutralization IC50,[8],0.022 mg/L
same,neutralization IC50,[9],> 50 mg/L
same,neutralization IC50,[10],> 50 mg/L
same,neutralization IC50,[11],10.4 mg/L
same,neutralization IC50,[12],0.018 mg/L
same,neutralization IC50,[13],0.017 mg/L
same,neutralization IC50,[14],0.024 mg/L
same,neutralization IC50,[15],19.2 mg/L
same,neutralization IC50,[16],> 50 mg/L
same,neutralization IC50,[17],7.57 mg/L
same,neutralization IC50,[18],> 50 mg/L
same,neutralization IC50,[19],0.019 mg/L
same,neutralization IC50,[20],0.018 mg/L
same,neutralization IC50,[21],0.12 mg/L
same,neutralization IC50,[22],0.059 mg/L
same,neutralization IC50,[23],1.08 mg/L
same,neutralization IC50,[24],0.02 mg/L
same,neutralization IC50,[25],> 50 mg/L
same,neutralization IC50,[26],> 50 mg/L
same,neutralization IC50,[27],0.029 mg/L
same,neutralization IC50,[28],> 50 mg/L
same,neutralization IC50,[29],> 50 mg/L
same,neutralization IC50,[30],36.7 mg/L
same,neutralization IC50,[31],0.279 mg/L
same,neutralization IC50,[32],> 50 mg/L
same,neutralization IC50,[33],0.063 mg/L
same,neutralization IC50,[34],0.079 mg/L
same,neutralization IC50,[35],0.129 mg/L
same,neutralization IC50,[36],0.019 mg/L
same,neutralization IC50,[37],0.05 mg/L
same,neutralization IC50,[38],6.95 mg/L
same,neutralization IC50,[39],> 50 mg/L
same,neutralization IC50,[40],21.5 mg/L
same,neutralization IC50,[41],1.9 mg/L
same,neutralization IC50,[42],> 50 mg/L
same,neutralization IC50,[43],0.014 mg/L
